Assay [1] concerns the target T1, His-tagged RBD (RBD-His) protein of SARS-CoV-2 (SARS-CoV-2, UniProt P0DTC2 319-541). Put plainly: BLI.
Assay [2] concerns the target T1, His-tagged RBD (RBD-His) protein of …. Put plainly: BLI. The source holds these as a separate data set. (BLI is a label-free optical method that tracks binding on a fibre tip over time.)

Several values for one entry are separate records, joined by “and”; a condition that tells them apart may be missing. Equal entries are not always repeated.

The Kd is a measure of binding affinity in units of concentration. A word on the koff: it is the rate constant with which the complex falls apart.

B1: CoV2-06 (antibody, V domains shown)
VH: QVELQESGPGLVKPSGTLSLTCAVSGGSISSNNWWTWVRQPPGKGLEWIGEIHHSGGTNYNPSLKSRVTMSVDKSKNQFSLNLYSVTAADTAVYYCTRDRAGGTYSGFDFWGQGTLVTVSS
VL: QAVVTQPASVSGSPGQSITISCTGTSSDVGGYNYVSWYQQHPGKAPKLMIYDVSNRPSGVSNRFSGSKSGNTASLTISGLQAEDEADYYCSSYTSSSTVVFGGGTKVTVL
With B1, in assay [1], the Kd is 0.27 nM and 0.09 nM.

B2: CoV2-14 (antibody, V domains shown)
VH: EVQLQQSGPGLVKPSQTLSLTCAISGDSVSSNSAAWNWIRQSPSRGLEWLGRTYYRSKWYNDYAVSVKSRITINPDTSKNQFSLQLNSVTPEDTAVYYCAREEQQLVHDYYYYGMDVWGQGTMVTVSS
VL: QAVVTQPASVSGSPGQSITISCTGTSSDIGAYNYISWYQQHPGKAPKLIIYEVSNRPSGISYRFSGSKSGNTASLTISGLQAEDEANYYCSSYAGSISFGGGTKVTVL
Regarding B2, the koff in assay [2] was 0.000222 s⁻¹ and 0.000552 s⁻¹. The dissociation constant Kd in assay [1] was 0.62 nM and 0.58 nM.

The values above are taken from article PMC9499943 (2022).
